Ends that are not written are not given here. * marks the point of attachment. Nvoc = Nvoc photocleavable protecting (caging) group on the Lys side chain, COc1cc(COC(=O)*)c([N+](=O)[O-])cc1OC
Columns and labels:
Format in all cases: cell-based
hNaV1.6 = biological target: T1, hNaV1.6 (Homo sapiens, UniProt Q9UQD0); test: Photoactivation by UV illumination combined with automated patch-clamp; conditions: 100 nM, illumination 4 min, 365 nm, 45 mW/cm2; n = 14
T1 construct: expressed in transfected cells
Protocol: (§1) HEK293 cells stably expressing the hNaV1.1 (XM_011511604), hNaV1.2 (XM_017004655) or hNaV1.6 (XM_011538651) channels, CHO cells transiently expressing hKV1.2 (NG_027997.2) and CHO cells stably expressing hNaV1.7 (XM_011511618) or the hERG (NM_000238) channels were cultured in Dulbecco’s Modified Eagle’s Medium (DMEM) supplemented with 10% fetal bovine serum, 1 mM pyruvic acid, 4.5 g/L glucose, 4 mM glutamine, 800 µg/mL G418, 10 U/mL penicillin and 10 μg/mL streptomycin (Gibco, Grand Island, NY). All cell lines were incubated at 37 °C in a 5% CO2 atmosphere. For electrophysiological recordings, cells were detached with trypsin and floating single cells were diluted (~300,000 cells/mL) in medium contained (in mM): […], 4 KCl, 2 CaCl2, 1 MgCl2, 5 glucose, and 10 HEPES (pH 7.4, osmolarity 298 mOsm).
(§2) Automated patch-clamp recordings were performed using the SyncroPatch 384PE from Nanion (München, Germany). […] Current inhibition percentages were measured at equilibrium after 14 min peptide application time. […]
(§3) The pharmacology of HwTxIV-Nvoc, as well as the efficiency of the released product to block hNaV channels was studied using combined automated patch-clamp and UV illumination. After 2 min of control, HwTxIV-Nvoc was added to the external buffer and effects were recorded for 100 s prior to a 250 s-duration illumination for photocleavage induction of the caged compound. […]

hERG = biological target: T2, hERG (Homo sapiens, UniProt Q12809); test: Photocontrol of hERG current, automated patch-clamp; conditions: 100 nM; 365 nm, 45 mW/cm^2, 250 s
T2 construct: expressed in transfected cells
Protocol: as §1, §2, §3

hKV1.2 = biological target: T3, hKV1.2 (Homo sapiens, UniProt P16389); test: Photocontrol of KV1.2 current, automated patch-clamp; conditions: 100 nM; 365 nm, 45 mW/cm^2, 250 s
T3 construct: expressed in transfected cells; host or cells: CHO (transient)
Protocol: as §1, §2, §3

T3 sequence (P16389 whole entry): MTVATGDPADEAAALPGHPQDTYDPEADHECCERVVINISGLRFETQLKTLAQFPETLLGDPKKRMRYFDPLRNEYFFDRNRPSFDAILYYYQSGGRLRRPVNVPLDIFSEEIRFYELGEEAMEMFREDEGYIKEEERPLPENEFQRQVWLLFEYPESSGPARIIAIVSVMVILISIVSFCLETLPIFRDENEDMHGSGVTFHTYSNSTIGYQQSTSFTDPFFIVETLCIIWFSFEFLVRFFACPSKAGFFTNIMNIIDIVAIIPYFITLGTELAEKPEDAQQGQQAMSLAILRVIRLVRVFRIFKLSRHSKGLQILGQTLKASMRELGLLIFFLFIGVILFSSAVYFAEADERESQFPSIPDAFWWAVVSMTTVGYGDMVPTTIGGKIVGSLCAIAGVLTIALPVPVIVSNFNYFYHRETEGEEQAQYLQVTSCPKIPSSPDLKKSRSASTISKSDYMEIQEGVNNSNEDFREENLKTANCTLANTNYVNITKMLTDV
T2 sequence (Q12809 whole entry): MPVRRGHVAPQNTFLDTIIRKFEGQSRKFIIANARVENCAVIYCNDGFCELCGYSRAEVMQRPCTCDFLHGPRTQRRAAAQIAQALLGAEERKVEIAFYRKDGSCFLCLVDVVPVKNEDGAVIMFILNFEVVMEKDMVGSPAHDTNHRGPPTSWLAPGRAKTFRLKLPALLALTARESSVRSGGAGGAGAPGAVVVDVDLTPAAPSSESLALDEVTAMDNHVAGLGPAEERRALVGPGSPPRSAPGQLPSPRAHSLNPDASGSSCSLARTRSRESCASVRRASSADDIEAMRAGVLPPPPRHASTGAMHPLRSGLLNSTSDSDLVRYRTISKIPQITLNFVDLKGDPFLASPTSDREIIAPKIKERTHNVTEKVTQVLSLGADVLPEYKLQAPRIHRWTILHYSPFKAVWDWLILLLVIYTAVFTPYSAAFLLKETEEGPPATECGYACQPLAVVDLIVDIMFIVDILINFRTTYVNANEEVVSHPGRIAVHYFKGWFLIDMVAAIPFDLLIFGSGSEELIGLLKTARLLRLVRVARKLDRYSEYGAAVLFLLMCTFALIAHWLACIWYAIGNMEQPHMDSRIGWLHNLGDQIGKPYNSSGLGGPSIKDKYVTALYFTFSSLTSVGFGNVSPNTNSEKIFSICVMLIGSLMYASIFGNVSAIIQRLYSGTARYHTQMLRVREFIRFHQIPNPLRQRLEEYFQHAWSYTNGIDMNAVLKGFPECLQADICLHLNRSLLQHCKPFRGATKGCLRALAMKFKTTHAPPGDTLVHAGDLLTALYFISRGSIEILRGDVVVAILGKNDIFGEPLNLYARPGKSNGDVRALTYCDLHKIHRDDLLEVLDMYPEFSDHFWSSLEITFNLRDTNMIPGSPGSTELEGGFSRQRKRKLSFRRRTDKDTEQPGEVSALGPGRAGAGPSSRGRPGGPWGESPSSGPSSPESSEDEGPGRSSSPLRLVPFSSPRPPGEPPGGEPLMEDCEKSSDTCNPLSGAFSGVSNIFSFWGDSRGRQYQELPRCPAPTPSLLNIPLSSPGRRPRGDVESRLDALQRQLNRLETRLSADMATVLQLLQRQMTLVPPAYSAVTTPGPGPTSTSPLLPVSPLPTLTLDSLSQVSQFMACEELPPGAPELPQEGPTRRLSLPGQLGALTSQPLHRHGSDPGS
T1 sequence (Q9UQD0 whole entry): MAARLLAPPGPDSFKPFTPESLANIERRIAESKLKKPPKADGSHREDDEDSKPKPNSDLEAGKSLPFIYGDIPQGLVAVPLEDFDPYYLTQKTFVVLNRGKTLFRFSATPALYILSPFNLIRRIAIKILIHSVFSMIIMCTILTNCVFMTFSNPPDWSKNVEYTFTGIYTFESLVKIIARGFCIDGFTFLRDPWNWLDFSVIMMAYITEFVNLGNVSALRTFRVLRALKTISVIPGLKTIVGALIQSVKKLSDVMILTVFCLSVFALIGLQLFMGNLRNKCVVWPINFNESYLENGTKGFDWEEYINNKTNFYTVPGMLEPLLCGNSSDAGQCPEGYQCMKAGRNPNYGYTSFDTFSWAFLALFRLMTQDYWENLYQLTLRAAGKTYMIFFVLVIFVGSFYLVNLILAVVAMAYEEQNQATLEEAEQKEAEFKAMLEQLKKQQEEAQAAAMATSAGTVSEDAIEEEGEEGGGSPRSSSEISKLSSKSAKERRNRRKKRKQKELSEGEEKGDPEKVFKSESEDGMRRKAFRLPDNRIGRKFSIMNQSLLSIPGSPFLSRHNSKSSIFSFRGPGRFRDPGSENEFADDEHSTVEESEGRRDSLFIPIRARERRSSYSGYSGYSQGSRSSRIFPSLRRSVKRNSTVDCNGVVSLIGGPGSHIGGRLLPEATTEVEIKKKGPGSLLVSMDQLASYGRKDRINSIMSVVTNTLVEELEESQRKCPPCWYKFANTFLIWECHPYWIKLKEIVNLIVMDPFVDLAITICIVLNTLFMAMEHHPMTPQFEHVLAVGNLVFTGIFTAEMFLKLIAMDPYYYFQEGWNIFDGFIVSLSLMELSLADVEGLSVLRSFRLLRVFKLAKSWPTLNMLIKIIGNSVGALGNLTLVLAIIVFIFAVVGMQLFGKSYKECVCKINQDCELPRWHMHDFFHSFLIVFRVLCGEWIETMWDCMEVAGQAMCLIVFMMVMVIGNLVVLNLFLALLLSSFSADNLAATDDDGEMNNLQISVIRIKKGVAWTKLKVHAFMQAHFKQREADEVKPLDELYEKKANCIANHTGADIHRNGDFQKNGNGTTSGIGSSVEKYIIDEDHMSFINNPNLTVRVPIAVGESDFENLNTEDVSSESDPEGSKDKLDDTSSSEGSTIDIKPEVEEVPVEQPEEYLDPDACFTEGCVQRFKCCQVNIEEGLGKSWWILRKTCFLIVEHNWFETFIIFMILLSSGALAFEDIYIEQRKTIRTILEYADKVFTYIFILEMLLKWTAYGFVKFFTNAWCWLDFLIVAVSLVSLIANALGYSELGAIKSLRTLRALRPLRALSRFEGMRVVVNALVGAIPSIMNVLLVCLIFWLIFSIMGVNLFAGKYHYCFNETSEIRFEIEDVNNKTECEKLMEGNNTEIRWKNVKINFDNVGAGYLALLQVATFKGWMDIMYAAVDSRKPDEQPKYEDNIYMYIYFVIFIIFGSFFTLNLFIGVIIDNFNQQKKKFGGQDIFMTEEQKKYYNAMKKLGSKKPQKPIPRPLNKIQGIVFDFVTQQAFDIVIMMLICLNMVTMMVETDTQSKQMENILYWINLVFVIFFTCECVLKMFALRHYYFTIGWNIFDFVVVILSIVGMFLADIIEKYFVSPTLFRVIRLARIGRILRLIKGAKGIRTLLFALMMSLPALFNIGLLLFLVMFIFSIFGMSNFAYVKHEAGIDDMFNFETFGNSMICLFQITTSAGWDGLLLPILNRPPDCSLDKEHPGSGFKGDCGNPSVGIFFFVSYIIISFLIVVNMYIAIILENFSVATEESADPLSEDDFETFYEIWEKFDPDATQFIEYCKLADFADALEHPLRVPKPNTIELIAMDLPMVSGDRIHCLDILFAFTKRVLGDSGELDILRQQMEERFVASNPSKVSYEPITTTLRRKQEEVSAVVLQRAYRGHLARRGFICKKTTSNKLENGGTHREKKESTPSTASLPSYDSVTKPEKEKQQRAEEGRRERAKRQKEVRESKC

Substance: BeKm1-Nvoc: BeKm1 (hERG blocker) caged with a Nvoc protecting group on K^18 (RPTDIKCSESYQCFPVCK(Nvoc)SRFGKTNGRCVNGFCDCF; ends and bridges not checked; UniProt Q9BKB7 22-57, looked up)
- effect of Nvoc photolysis by-product on hNaV1.6 (hNaV1.6): inert
- UV-dependent effect on hERG current (hERG): block

Substance: charybdotoxin-Nvoc
- UV-dependent effect on KV1.2 current (hKV1.2): block
